Measured values taken from patent US20250367270A1.

Target: SARS-CoV-2 recombinant spike HexaPro protein (SARS-CoV-2) (UniProt P0DTC2)
Test: SPR

“ACE2 monomer construct (SS-ACE2-Linker) (from UniProt Q9BYF1 19-614)” showed a Kd of 72 nM.
